Results published in patent US10188742B2, “Bi-specific antibodies and uses thereof” (ACADEMIA SINICA, priority 2014, dated 2019).

Columns and labels:
BSA = BSA (Bos taurus, UniProt P02769); assay: ELISA antigen binding of BsAbs, control protein
Protocol: (§1) The anti-PEG binding specificity of BsAbs was measured by adding graded concentrations of PEG2×TAG72, PEG2×DNS, hCC49 scFv, h6.3Fab×EGFR or h6.3Fab×CD19 in 50 μL 2% skim milk to the mucin, BSA-PEG5000, NH2-PEG3k-NH2 or BSA coated plates at RT for 1 h. The plates were washed with PBS-T (PBS containing 0.05% Tween-20) three times. Rabbit anti-6×His (2 μg/mL) supplemented with HRP-conjugated goat anti-rabbit (2 μg/mL) or HRP-conjugated goat Ig anti human IgG Fab (2 μg/mL) (Jackson ImmunoResearch Laboratories, West Grove, Pa.) in 50 μL dilution buffer were added for 1 h at room temperature. The plates were washed with PBS-T (PBS containing 0.05% Tween-20) three times and with PBS two times. Bound peroxidase activity was measured by adding 150 μL/well ABTS substrate solution (BioLegend, San Diego, Calif.) for 30 min at room temperature. The absorbance (405 nm) of wells was measured in a microplate reader (Molecular Device, Menlo Park, Calif.).
Binding of the BsAbs was detected by ELISA. Microtiter plates were first coated with antigens and then PEG2×TAG72, PEG2×DNS BsAbs or hCC49 (anti-TAG72) single chain antibody was added. After the plates were extensively washed to remove unbound antibodies, the remaining bound antibodies in each well were detected with HRP-conjugated secondary antibody. […] In sum, PEG2×TAG72 anti-PEG (hE11) BsAb of example 1.2 can bind both PEG and tumor antigens. […]

A431 cells (EGFR+) = assay: Flow cytometry: BsAb-directed PEG-liposome Texas Red / PEG-Qdot655 on cells; assay type: cell-based, human; settings: PEG-liposome Texas Red and PEG-Qdot655, 10 μg/mL BsAb
Protocol: (§2) PEG2×TAG72 or control PEG2×DNS BsAbs (10 μg/mL) were incubated with A-375 (TAG72−), MCF-7 (TAG72+), Jurkat (TAG72+) or OVCAR-3 (TAG72+) cells at 4° C. for 30 min followed by FITC-labeled goat anti-human immunoglobulin second antibody (2 μg/mL) (Jackson ImmunoResearch Laboratories, West Grove, Pa.) or FITC-labeled 4arm-PEG (2 μg/mL). Tumor-specific targeting of PEGylated compounds was also examined by staining A431 (EGFR^high), and Raji (CD19^high) cell lines with 10 μg/mL of h6.3Fab×EGFR or h6.3Fab×CD19 BsAbs in PBS containing 0.05% BSA (staining buffer) at 4° C. for 30 min. The cells were washed with cold PBS for 3 times. PEG-Qdot655 (8 nM) (Invitrogen, Grand Island, N.Y.) or PEG-liposomal Texas-Red (100 nm size, 50 μM, lipid conc.) (FormuMax Scientific, Palo Alto, Calif.) in staining buffer was added to cells for 30 min at 4° C. Raji cells (CD19+) or SKBR3 cells (HER2+) were incubated with 10 μg/ml h15-2b-knob/BU12-hole, h15-2b-knob/anti-Her2-hole, h6-3-knob/BU12-hole or h6-3-knob/anti-Her2-hole BsAbs, washed and incubated with 0.25 μg/ml FITC-labeled goat anti-human IgG or 10 nM methoxy-PEG Qdot 655 at 4° C. for 30 min. After washing with cold PBS, the surface fluorescence of 10^4 viable cells was measured by FACScaliber flow cytometer (Becton Dickinson, Mountain View, Calif., USA) then analyzed with Flowjo (Tree Star Inc., San Carlos, Calif., USA). […]

[1] = system: Ramos (CD19+) and A431 (EGFR+) tumor; assay: In vivo optical imaging of PEG-NIR797 probes; design: species or system BALB/c nude mice; settings: i.v. BsAb and PEG-NIR797; 45 min, 24 and 48 hours
Protocol: The mice were then imaged at 45 min, 24 and 48 hours after injection using an IVIS spectrum optical imaging system.

[2] = ELISA PEG binding of h6.3 BsAbs; settings: FIG. 14A
Protocol: as §1, with “The anti-PEG binding specificity of BsAbs was measured by adding graded concentrations of PEG2×TAG72, PEG2×DNS, hCC49 scFv, h6.3Fab×EGFR or h6.3Fab×CD19 in 50 μL 2% skim milk to the mucin, BSA-PEG5000, NH2-PEG3k-NH2 or BSA coated plates at RT for 1 h.” left out
The PEG-binding kinetics of h6-3Fab×EGFR and h6.3Fab×CD19 BsAbs were verified by Microscale Thermophoresis (MST) (FIGS. 14D and 14E).

MDA-MB-468 cells (EGFR+) = assay: Cytotoxicity assay of Doxisome with h6.3 BsAbs (3H-thymidine); assay type: cell-based, human; settings: compared with Doxisome alone
A431 (EGFR+) cells = assay: as above; assay type: cell-based, human; settings: compared with Doxisome alone
Protocol: (§3) A431 (EGFR^high) and Raji (CD19^high) cells (5000 cells/well) were seeded in 96-well plates overnight. Fifteen microgram per mL of h6.3Fab×EGFR or h6.3Fab×CD19 BsAbs were added to the cells for 30 min at 37° C. and followed by graded concentrations of free doxorubicin or PEGylated liposomal doxorubicin (Doxisome®, Taiwan Liposome Company Ltd., Taipei, Taiwan) was added to the cells in triplicate at 37° C. for 4 h. The cells were subsequently washed once and incubated for an additional 48 h in fresh culture medium and then pulsed for 16 h with ^3H-thymidine (1 μCi/well). Results are expressed as percent inhibition of ^3H-thymidine incorporation into cellular DNA in comparison to untreated cells.
(§4) Next, the ability of whether h6.3Fab×CD19 and h6.3Fab×EGFR BsAbs could increase the cytotoxicity of the drug-loaded nanoparticles (NPs) to antigen-positive cancer cells was investigated. Raji (CD19+) and A431 (EGFR+) cells were incubated with h6.3Fab×CD19 and h6.3Fab×EGFR, followed by the addition of graded concentrations of Doxisome (i.e., PEGylated liposomal doxorubicin).

A431 (EGFR+) tumor cells = assay: Confocal live cell imaging of PEG-Qdot655 internalization; assay type: cell-based, human; settings: 10 μg/mL BsAb, 16 nM PEG-Qdot655
Protocol: The coverslips (30 mm) in POC chambers were coated with 10 μg/mL poly-L-lysine in PBS for 30 min at room temperature. The coverslips were washed twice with PBS and then 5×10^4 cells/chamber of A431 (EGFR+) tumor cells were seeded on the coverslips. A431 cells were incubated with 10 μg/mL of h6.3Fab×EGFR or h6.3Fab×CD19 BsAbs at 37° C. for 30 min containing 1 μg/mL of Hoechst 33342 and 100 nM of LysoTracker® Red DND-99 (Invitrogen Life Technologies Corporation, NY, USA). The cells were washed with culture medium for 2 times. Cell imaging was recorded with an Axiovert 200M Confocal Microscope (Carl Ziess Inc., Thornwood, N.Y.) after adding 16 nM of PEG-Qdot655 solution (Invitrogen Life Technologies Corporation, NY, USA).
To verify whether BsAb-targeted substance could be internalized by antigen-positive cancer cells, live cell imaging was performed by staining cells with lysosome tracker and BsAbs, followed by the addition and incubation of PEG-Qdot655.

Raji cells (CD19+) = assay: Flow cytometry: BsAb-directed PEG-liposome Texas Red / PEG-Qdot655 on cells; assay type: cell-based; settings: PEG-liposome Texas Red and PEG-Qdot655, 10 μg/mL BsAb
Protocol: as §2

Raji (CD19+) cells = assay: Cytotoxicity assay of Doxisome with h6.3 BsAbs (3H-thymidine); assay type: cell-based; settings: compared with Doxisome alone
Protocol: as §3, §4

Chain of BSA (P02769 25-607): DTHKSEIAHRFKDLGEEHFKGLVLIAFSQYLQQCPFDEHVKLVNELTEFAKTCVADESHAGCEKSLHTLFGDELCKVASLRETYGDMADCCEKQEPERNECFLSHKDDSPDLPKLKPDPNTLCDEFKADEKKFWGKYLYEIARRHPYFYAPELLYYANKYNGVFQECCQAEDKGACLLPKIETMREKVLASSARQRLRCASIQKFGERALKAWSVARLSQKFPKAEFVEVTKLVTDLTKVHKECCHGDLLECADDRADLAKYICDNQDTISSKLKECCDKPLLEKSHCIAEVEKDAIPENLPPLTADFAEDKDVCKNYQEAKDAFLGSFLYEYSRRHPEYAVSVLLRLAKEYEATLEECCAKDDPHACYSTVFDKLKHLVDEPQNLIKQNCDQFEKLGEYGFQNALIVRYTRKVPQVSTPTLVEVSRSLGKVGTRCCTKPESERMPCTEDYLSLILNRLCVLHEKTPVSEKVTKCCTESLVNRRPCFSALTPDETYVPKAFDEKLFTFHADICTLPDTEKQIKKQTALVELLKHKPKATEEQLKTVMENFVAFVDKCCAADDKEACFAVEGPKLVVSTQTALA

binding to BSA (BSA) | binding to NH2-PEG10,000-NH2 [2] | Molecule | directing PEGylated substance to A431 cells (A431 cells (EGFR+)) | PEG-NIR797 signal in A431 tumors [1] | effect on cytotoxicity of Doxisome to MDA-MB-468 cells (MDA-MB-468 cells (EGFR+)) | effect on cytotoxicity of Doxisome to A431 cells (A431 (EGFR+) cells) | uptake of PEG-Qdot655 into A431 cells (endocytic vesicles) (A431 (EGFR+) tumor cells) | directing PEGylated substance to Raji cells (Raji cells (CD19+)) | effect on cytotoxicity of Doxisome to Raji cells (Raji (CD19+) cells)
not to the control BSA protein | bound to the NH2-PEG10,000-NH2 | h6.3Fab×EGFR: monovalent humanized anti-PEG h6.3 Fab fused to 11F8 anti-EGFR dsFv; SEQ ID NO 9, 10, 4, 7, 6 (protein, Humanized 6.3 VL-Ck; Humanized 6.3 VH-CH1; Peptide Linker; 11F8 anti-EGFR dsFv; 6xHis Tag) chain 1: DIVMTQSPDSLAVSLGERATINCKSSQSVLYSSNQMNYLAWYQQKPGQPPKLLIYWASTRESGVPDRFSGSGSGTDFTLTISSLQAEDVAVYYCLQYLSSWTFGGGTKLEIKTYSLSSTLTLSKADYEKHKLYACEVTHQGLSSPVTKSFNRGEC chain 2: QVQLVQSGSELKKPGASVKVSCKASGYTFKNYGMNWVRQAPGQGLEWMGWINTYTGQPIYANDFKGRFVFSLDTSVSTAYLQISSLKAEDTAVYYCARDWGPYWGQGTLVTVSSASTKGPSVFPLAPSSKSTSGGTAALGCLVKDYFPEPVTVSWNSGALTSGVHTFPAVLQSSGLYSLSSVVTVPSSSLGTQTYICNVNHKPSNTKVDKRVEPKSCDK chain 3: VDLVTVSSASTGGGSGQLGGGGS chain 4: QVQLQESGPGLVKPSQTLSLTCTVSGGSISSGDYYWSWIRQPPGKCLEWIGYIYYSGSTDYNPSLKSRVTMSVDTSKNQFSLKVNSVTAADTAVYYCARVSIFGVGTFDYWGQGTLVTVSSGGGGSGGGGSGGGGSEIVMTQSPATLSLSPGERATLSCRASQSVSSYLAWYQQKPGQAPRLLIYDASNRATGIPARFSGSGSGTDFTLTISSLEPEDFAVYYCHQYGSTPLTFGCGTKAEIK chain 5: TRHHHHHH | capable of directing the PEGylated substance | Enhanced signals of PEG-NIR797 | enhanced cytotoxicity of Doxisome | enhanced cytotoxicity of Doxisome | displayed red fluorescence within endocytic vesicles | – | –
not to the control BSA protein | bound to the NH2-PEG10,000-NH2 | h6.3Fab×CD19: monovalent humanized anti-PEG h6.3 Fab fused to hBU12 anti-CD19 dsFv; SEQ ID NO 9, 10, 4, 11, 6 (protein, Humanized 6.3 VL-Ck; Humanized 6.3 VH-CH1; Peptide Linker; hBU12 dsFv; 6xHis Tag) chain 1: DIVMTQSPDSLAVSLGERATINCKSSQSVLYSSNQMNYLAWYQQKPGQPPKLLIYWASTRESGVPDRFSGSGSGTDFTLTISSLQAEDVAVYYCLQYLSSWTFGGGTKLEIKTYSLSSTLTLSKADYEKHKLYACEVTHQGLSSPVTKSFNRGEC chain 2: QVQLVQSGSELKKPGASVKVSCKASGYTFKNYGMNWVRQAPGQGLEWMGWINTYTGQPIYANDFKGRFVFSLDTSVSTAYLQISSLKAEDTAVYYCARDWGPYWGQGTLVTVSSASTKGPSVFPLAPSSKSTSGGTAALGCLVKDYFPEPVTVSWNSGALTSGVHTFPAVLQSSGLYSLSSVVTVPSSSLGTQTYICNVNHKPSNTKVDKRVEPKSCDK chain 3: VDLVTVSSASTGGGSGQLGGGGS chain 4: QVQLQESGPGLVKPSQTLSLTCTVSGGSISTSGMGVGWIRQHPGKCLEWIGHIWWDDDKRYNPALKSRVTISVDTSKNQFSLKLSSVTAADTAVYYCARMELWSYYFDYWGQGTLVTVSSGGGGSGGGGSGGGGSEIVLTQSPATLSLSPGERATLSCSASSSVSYMHWYQQKPGQAPRLLIYDTSKLASGIPARFSGSGSGTDFTLTISSLEPEDVAVYYCFQGSVYPFTFGCGTKLEIKR chain 5: TRHHHHHH | – | – | – | – | failed to produce PEG-Qdot655 signals | capable of directing PEGylated substance to Raji cells | enhanced cytotoxicity of Doxisome
